The values below come from paper PMC4930479.

For one test, the target named is VEGF165 (human). The test can be described thus: SEC-MALS; inhibitor and ligand mixed at molar ratios 5:1 to 1:5 (20 µM and 100 µM), 12 h at ambient temperature; free proteins injected separately; Superose 12 10/300 GL, 10 mM phosphate, 500 mM NaCl, pH 7.0, 0.3 mL/min.
A further test deals with FcγRI (human) (UniProt P12314). As to the kind of experiment: SPR; His-tagged or myc-myc His-tagged Fcγ receptors captured (about 200 RU) on anti-histidine antibody on a CM4 or CM5 chip; inhibitor with or without equimolar VEGF165 or VEGF121 injected (1 µM in Table 1); Biacore 3000, 25 °C, HBS-T pH 7.4; only kd and t1/2 calculated.
Another test addresses FcγRIIIa (176F) (human) (UniProt P08637). The test is described as above.
The target of a further test is FcγRIIIa (176V) (human) (UniProt P08637). Described as above.
For a further test, the target named is FcγRIIIb (human) (UniProt O75015). The test is described as above.
A further test addresses T1, PlGF-2 (UniProt P49763).
T1 sequence: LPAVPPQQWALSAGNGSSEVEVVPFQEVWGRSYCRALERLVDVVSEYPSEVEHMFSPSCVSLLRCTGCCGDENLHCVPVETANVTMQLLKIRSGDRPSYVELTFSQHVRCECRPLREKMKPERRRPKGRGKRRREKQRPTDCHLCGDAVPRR
As to the kind of experiment: SEC-MALS; inhibitor and ligand mixed at molar ratios 5:1 to 1:5 (20 µM and 100 µM), 12 h at ambient temperature; free proteins injected separately; Superose 12 10/300 GL, 10 mM phosphate, 500 mM NaCl, pH 7.0, 0.3 mL/min. A general note: SEC sorts molecules by how far they enter the pores of the column.

Test [1] concerns the target FcγRIIa (131R allele) (human) (UniProt P12318). As to the kind of experiment: SPR; His-tagged or myc-myc His-tagged Fcγ receptors captured (about 200 RU) on anti-histidine antibody on a CM4 or CM5 chip; inhibitor with or without equimolar VEGF165 or VEGF121 injected (1 µM in Table 1); Biacore 3000, 25 °C, HBS-T pH 7.4; only kd and t1/2 calculated.
The target of the next test is FcγRIIb (human) (UniProt P31994). The description is as above.
FcγRIIb (human), sequence (P31994 43-217): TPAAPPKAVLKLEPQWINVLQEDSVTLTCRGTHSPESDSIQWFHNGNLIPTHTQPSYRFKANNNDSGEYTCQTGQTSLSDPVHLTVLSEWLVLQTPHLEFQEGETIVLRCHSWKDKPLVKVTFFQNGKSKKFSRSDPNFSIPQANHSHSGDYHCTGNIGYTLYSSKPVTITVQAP

FcγRIIIa (176F) (human), sequence (P08637 17-254): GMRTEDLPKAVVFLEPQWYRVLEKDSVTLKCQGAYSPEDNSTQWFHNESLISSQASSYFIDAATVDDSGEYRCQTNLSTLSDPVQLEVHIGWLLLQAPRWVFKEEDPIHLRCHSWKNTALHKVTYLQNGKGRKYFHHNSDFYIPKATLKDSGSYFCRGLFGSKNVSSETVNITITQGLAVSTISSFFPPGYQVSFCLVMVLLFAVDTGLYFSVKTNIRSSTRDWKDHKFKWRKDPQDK
FcγRIIIb (human), sequence (O75015 17-200): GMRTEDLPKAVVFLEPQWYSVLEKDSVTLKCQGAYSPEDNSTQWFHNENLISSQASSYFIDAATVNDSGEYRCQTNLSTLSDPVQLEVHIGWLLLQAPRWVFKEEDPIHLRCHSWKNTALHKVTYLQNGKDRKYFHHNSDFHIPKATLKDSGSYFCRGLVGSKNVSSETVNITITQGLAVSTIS
aflibercept (Fc fusion), sequence (chain): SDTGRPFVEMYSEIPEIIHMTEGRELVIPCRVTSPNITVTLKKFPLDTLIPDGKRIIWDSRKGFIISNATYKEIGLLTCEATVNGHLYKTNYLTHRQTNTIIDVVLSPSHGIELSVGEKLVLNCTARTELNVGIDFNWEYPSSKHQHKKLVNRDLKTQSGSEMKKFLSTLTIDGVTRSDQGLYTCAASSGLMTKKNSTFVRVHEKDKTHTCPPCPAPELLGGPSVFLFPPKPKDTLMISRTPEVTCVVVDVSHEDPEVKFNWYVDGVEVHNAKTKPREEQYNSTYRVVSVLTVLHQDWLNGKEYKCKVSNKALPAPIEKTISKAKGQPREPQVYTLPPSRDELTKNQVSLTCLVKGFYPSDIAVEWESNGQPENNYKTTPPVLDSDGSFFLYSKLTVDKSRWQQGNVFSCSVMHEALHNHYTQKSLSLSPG
FcγRIIIa (176V) (human), sequence (P08637 17-254 F176V): as the sequence (P08637 17-254) above, with F160V counted along it
FcγRI (human), sequence (P12314 16-292): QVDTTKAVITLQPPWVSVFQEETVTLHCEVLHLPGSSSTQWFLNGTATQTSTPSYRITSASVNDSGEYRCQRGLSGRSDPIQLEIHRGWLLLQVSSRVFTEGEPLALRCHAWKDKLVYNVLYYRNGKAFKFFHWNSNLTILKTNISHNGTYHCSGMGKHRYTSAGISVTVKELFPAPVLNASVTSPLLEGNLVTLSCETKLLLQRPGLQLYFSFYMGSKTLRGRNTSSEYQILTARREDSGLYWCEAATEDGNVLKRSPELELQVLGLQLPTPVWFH

With VEGF165 (ligand), the stoichiometry N (usually a count of units in the complex or per binding partner) in the test with VEGF165 (human) was determined as 2.

On to aflibercept (Fc fusion), for which the t1/2 was 961 s with FcγRI (human), 14 s in the test with FcγRIIIa (176F) (human), 91 s with FcγRIIIa (176V) (human) and 4 s with FcγRIIIb (human). Further, the stoichiometry N (aflibercept per VEGF165 dimer) with VEGF165 (human) was determined as 1. Moreover, the stoichiometry N (aflibercept per PlGF-2 dimer) with PlGF-2 is 1.

On to aflibercept:VEGF121 complex, for which the t1/2 in the test with FcγRI (human) is 1020 s; in the test with FcγRIIIa (176F) (human), 19 s; with FcγRIIIa (176V) (human), 121 s; with FcγRIIIb (human), 5 s; in test [1] it was 4 s.

For aflibercept:VEGF165 complex, the koff (commonly the rate constant with which the complex falls apart) was 0.174 s⁻¹ with FcγRIIb (human); 0.000617 s⁻¹ with FcγRI (human); 0.0392 s⁻¹ in the test with FcγRIIIa (176F) (human); 0.00614 s⁻¹ with FcγRIIIa (176V) (human); 0.164 s⁻¹ in the test with FcγRIIIb (human); 0.205 s⁻¹ in test [1]. Moreover, the t1/2 with FcγRIIb (human) was 4 s; in the test with FcγRI (human), 1120 s; with FcγRIIIa (176F) (human) it was 18 s; with FcγRIIIa (176V) (human), 113 s; with FcγRIIIb (human), 4 s; in test [1], 3 s.

Take bevacizumab (antibody): the koff in the test with FcγRIIb (human) was 0.179 s⁻¹; with FcγRI (human) it was 0.000749 s⁻¹; in the test with FcγRIIIa (176F) (human), 0.0626 s⁻¹; with FcγRIIIa (176V) (human) it was 0.00803 s⁻¹; in the test with FcγRIIIb (human) it was 0.196 s⁻¹; in test [1], 0.111 s⁻¹. In addition, the t1/2 in the test with FcγRIIb (human) was 4 s; with FcγRI (human) it was 925 s; with FcγRIIIa (176F) (human), 11 s; with FcγRIIIa (176V) (human), 86 s; in the test with FcγRIIIb (human), 4 s; in test [1] it was 6 s.

Take bevacizumab:VEGF121 complex: the t1/2 was 380 s in the test with FcγRIIb (human), 3420 s with FcγRI (human) and 265 s with FcγRIIIb (human).

As to bevacizumab:VEGF165 complex, the t1/2 with FcγRIIb (human) was 707 s; with FcγRI (human), 2870 s; with FcγRIIIb (human) it was 463 s.
